Patent US20260209386A1 (MYTHIC THERAPEUTICS, published 2026)
Where a chain is given by its changes, count along the chain named. Each block holds one binder with its values, some of them ahead of it.

Key:
[1] = molecular target: T1, Human PTK7 Protein, His Tag, Acro Biosystems (human, UniProt Q13308 31-704); test: BLI (Octet), antibody on anti-human Fc sensor, 50 nM PTK7, dissociation at pH 7.4 or 5.4; 2 = substantially similar binding relative to parent
T1 construct: Bought protein; also called CCK4; not shown: His tag
T1 sequence: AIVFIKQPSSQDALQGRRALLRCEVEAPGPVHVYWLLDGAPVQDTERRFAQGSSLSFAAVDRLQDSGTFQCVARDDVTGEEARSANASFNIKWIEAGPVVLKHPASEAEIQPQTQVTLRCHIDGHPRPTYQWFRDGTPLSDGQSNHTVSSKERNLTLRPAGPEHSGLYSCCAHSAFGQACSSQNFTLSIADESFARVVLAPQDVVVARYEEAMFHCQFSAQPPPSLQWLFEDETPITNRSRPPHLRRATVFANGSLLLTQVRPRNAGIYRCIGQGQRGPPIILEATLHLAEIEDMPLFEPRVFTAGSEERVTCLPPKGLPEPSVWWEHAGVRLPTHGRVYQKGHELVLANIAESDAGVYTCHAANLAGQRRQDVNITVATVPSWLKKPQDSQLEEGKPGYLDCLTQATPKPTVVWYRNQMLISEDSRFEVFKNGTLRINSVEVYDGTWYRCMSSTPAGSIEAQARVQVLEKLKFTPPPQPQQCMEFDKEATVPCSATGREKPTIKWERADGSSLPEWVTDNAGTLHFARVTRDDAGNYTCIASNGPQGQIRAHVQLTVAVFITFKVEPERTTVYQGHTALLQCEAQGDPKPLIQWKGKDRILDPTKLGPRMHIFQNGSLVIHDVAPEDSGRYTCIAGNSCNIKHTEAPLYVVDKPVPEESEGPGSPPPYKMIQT

[2] = molecular target: T2, Human PTK7 Protein, His Tag, Acro Biosystems (human, UniProt Q13308 31-704); test: BLI, anti-human Fc capture, 50 nM PTK7; 2 = substantially similar binding relative to parent
T2 construct: Bought recombinant protein; also called CCK4; not shown: His tag
T2 sequence: T1 sequence

- binding result [2]: binds
B28: MYT11311 (antibody, V domains shown)
VH: EVQLVESGGGLVQPGGSLRLSCTASGIDLSRYSMGWVRQAPGKGLEWVGIISYGGSTYYASWAKGRFTISRDTSKNTVYLQMNSLRAEDTAVYFCARVGYPGYSGYGYAFDAFDPWGQGTLVTVSS
VL: EIVMTQSPSTLSASVGDRVIITCQSSKSVYHDNWLSWYQQKPGKAPKLLIYGASTLASGVPSRFSGSGSGAEFTLTISSLQPDDFATYYCAGGYSSSSDNGFGQGTKLTVL
notes: MYT9792 variant, His at VL 31 (L1 08)

- binding result [2]: binds
B29: MYT11319 (antibody, V domains shown)
VH: B28 VH
VL: B28 VL with H31N, S54H
notes: MYT9792 variant, His at VL 54 (L2 03)

- binding result [2]: binds
B30: MYT11304 (antibody, V domains shown)
VH: B28 VH
VL: B28 VL with Q24H, H31N
notes: MYT9792 variant, His at VL 24 (L1 01)

- binding result [2]: binds
B31: MYT11334 (antibody, V domains shown)
VH: B28 VH
VL: B28 VL with H31N, G101H
notes: MYT9792 variant, His at VL 101 (L3 11)

- binding result [2]: binds
B32: MYT11270 (antibody, V domains shown)
VH: B28 VH with S56H
VL: B28 VL with H31N
notes: MYT9792 variant, His at VH 56 (H2 07)

- binding result [2]: binds
B33: MYT11269 (antibody, V domains shown)
VH: B28 VH with G55H
VL: B28 VL with H31N
notes: MYT9792 variant, His at VH 55 (H2 06)

- binding result [2]: binds
B34: MYT11308 (antibody, V domains shown)
VH: B28 VH
VL: B28 VL with S28H, H31N
notes: MYT9792 variant, His at VL 28 (L1 05)

- binding result [2]: binds
B35: MYT11323 (antibody, V domains shown)
VH: B28 VH
VL: B28 VL with H31N, S58H
notes: MYT9792 variant, His at VL 58 (L2 07)

- binding result [2]: binds
B36: MYT11317 (antibody, V domains shown)
VH: B28 VH
VL: B28 VL with H31N, G52H
notes: MYT9792 variant, His at VL 52 (L2 01)

- binding result [2]: binds
B37: MYT11273 (antibody, V domains shown)
VH: B28 VH with Y59H
VL: B28 VL with H31N
notes: MYT9792 variant, His at VH 59 (H2 10)

- binding result [2]: binds
B38: MYT11338 (antibody, V domains shown)
VH: B28 VH
VL: B28 VL with H31N, N100A
notes: MYT9792 variant, Ala at VL 100 (L3 10)

- binding result [2]: binds
B39: MYT11288 (antibody, V domains shown)
VH: B28 VH with S104H
VL: B28 VL with H31N
notes: MYT9792 variant, His at VH 104 (H3 09)

Second part, the binder before the results:

B1: MYT11181 (antibody, V domains shown)
VH: EVQLVESGGGLVQPGGSLRLSCTASGHDLSSYVMGWVRQAPGKGLEWVGYIYGGGGTYYATWARGRFTISRDTSKNTVYLQMNSLRAEDTAVYFCARAAADFYFNLWGQGTLVTVSS
VL: EIVMTQSPSTLSASVGDRVIITCQASQSISSYLAWYQQKPGKAPKLLIYDISDLASGVPSRFSGSGSGAEFTLTISSLQPDDFATYYCQSYYWISNSGAAFGQGTKLTVL
notes: HC variant of MYT9460, sub at HCV pos 27 (H1 02)
- binding result [1]: binds

B2: MYT11183 (antibody, V domains shown)
VH: B1 VH with H27I, L29H
VL: B1 VL
notes: HC variant of MYT9460, sub at HCV pos 29 (H1 04)
- binding result [1]: binds

B3: MYT11187 (antibody, V domains shown)
VH: B1 VH with H27I, V33H
VL: B1 VL
notes: HC variant of MYT9460, sub at HCV pos 33 (H1 08)
- binding result [1]: binds

B4: MYT11185 (antibody, V domains shown)
VH: B1 VH with H27I, S31H
VL: B1 VL
notes: HC variant of MYT9460, sub at HCV pos 31 (H1 06)
- binding result [1]: binds

B5: MYT11186 (antibody, V domains shown)
VH: B1 VH with H27I, Y32H
VL: B1 VL
notes: HC variant of MYT9460, sub at HCV pos 32 (H1 07)
- binding result [1]: binds

B6: MYT11265 (antibody, V domains shown)
VH: B28 VH with I51H
VL: B28 VL with H31N
notes: MYT9792 variant, His at VH 51 (H2 02)
- binding result [2]: binds

B7: MYT11314 (antibody, V domains shown)
VH: B28 VH
VL: B28 VL with H31N, W34H
notes: MYT9792 variant, His at VL 34 (L1 11)
- binding result [2]: binds

B8: MYT11306 (antibody, V domains shown)
VH: B28 VH
VL: B28 VL with S26H, H31N
notes: MYT9792 variant, His at VL 26 (L1 03)
- binding result [2]: binds

B9: MYT11320 (antibody, V domains shown)
VH: B28 VH
VL: B28 VL with H31N, T55H
notes: MYT9792 variant, His at VL 55 (L2 04)
- binding result [2]: binds

B10: MYT11275 (antibody, V domains shown)
VH: B28 VH with S61H
VL: B28 VL with H31N
notes: MYT9792 variant, His at VH 61 (H2 12)
- binding result [2]: binds

B11: MYT11298 (antibody, V domains shown)
VH: B28 VH with D114H
VL: B28 VL with H31N
- binding result [2]: binds

B12: MYT11300 (antibody, V domains shown)
VH: B28 VH with F94Y
VL: B28 VL with H31N
- binding result [2]: binds

B13: MYT11318 (antibody, V domains shown)
VH: B28 VH
VL: B28 VL with H31N, A53H
notes: MYT9792 variant, His at VL 53 (L2 02)
- binding result [2]: binds

B14: MYT11268 (antibody, V domains shown)
VH: B28 VH with G54H
VL: B28 VL with H31N
notes: MYT9792 variant, His at VH 54 (H2 05)
- binding result [2]: binds

B15: MYT11278 (antibody, V domains shown)
VH: B28 VH with K64H
VL: B28 VL with H31N
notes: MYT9792 variant, His at VH 64 (H2 15)
- binding result [2]: binds

B16: MYT11299 (antibody, V domains shown)
VH: B28 VH with P115H
VL: B28 VL with H31N
- binding result [2]: binds

B17: MYT11313 (antibody, V domains shown)
VH: B28 VH
VL: B28 VL with H31N, N33H
notes: MYT9792 variant, His at VL 33 (L1 10)
- binding result [2]: binds

B18: MYT11286 (antibody, V domains shown)
VH: B28 VH with G102H
VL: B28 VL with H31N
notes: MYT9792 variant, His at VH 102 (H3 07)
- binding result [2]: binds

B19: MYT11276 (antibody, V domains shown)
VH: B28 VH with W62H
VL: B28 VL with H31N
notes: MYT9792 variant, His at VH 62 (H2 13)
- binding result [2]: binds

B20: MYT11274 (antibody, V domains shown)
VH: B28 VH with A60H
VL: B28 VL with H31N
notes: MYT9792 variant, His at VH 60 (H2 11)
- binding result [2]: binds

B21: MYT11329 (antibody, V domains shown)
VH: B28 VH
VL: B28 VL with H31N, S96H
notes: MYT9792 variant, His at VL 96 (L3 06)
- binding result [2]: binds

B22: MYT11277 (antibody, V domains shown)
VH: B28 VH with A63H
VL: B28 VL with H31N
notes: MYT9792 variant, His at VH 63 (H2 14)
- binding result [2]: binds

B23: MYT11312 (antibody, V domains shown)
VH: B28 VH
VL: B28 VL with H31N, D32H
notes: MYT9792 variant, His at VL 32 (L1 09)
- binding result [2]: binds

B24: MYT11301 (antibody, V domains shown)
VH: B28 VH with D28A
VL: B28 VL with H31N
notes: MYT9792 variant, Ala at VH 28 (H1 03)
- binding result [2]: binds

B25: MYT11266 (antibody, V domains shown)
VH: B28 VH with S52H
VL: B28 VL with H31N
notes: MYT9792 variant, His at VH 52 (H2 03)
- binding result [2]: binds

B26: MYT11290 (antibody, V domains shown)
VH: B28 VH with Y106H
VL: B28 VL with H31N
- binding result [2]: binds

B27: MYT11336 (antibody, V domains shown)
VH: B28 VH
VL: B28 VL with H31N, D32A
notes: MYT9792 variant, Ala at VL 32 (L1 09)
- binding result [2]: binds
